Experimental data reported in patent publication US20200283478A1 (Genentech, published 2020).
Bridge positions count the residues as written; N and C are the ends. Square brackets hold non-standard residues; d marks the D form.

B1: Compound 99 (Ac-CRLPWNLQRIGLpC-NH2) (peptide)
peptide: Ac-CRLPWNLQRIGL[dP]C-NH2
modifications: disulfide 1-14
SMILES: CC[C@H](C)[C@@H]1NC(=O)[C@H](CCCNC(=N)N)NC(=O)[C@H](CCC(N)=O)NC(=O)[C@H](CC(C)C)NC(=O)[C@H](CC(N)=O)NC(=O)[C@H](Cc2c[nH]c3ccccc23)NC(=O)[C@@H]2CCCN2C(=O)[C@H](CC(C)C)NC(=O)[C@H](CCCNC(=N)N)NC(=O)[C@@H](NC(C)=O)CSSC[C@@H](C(N)=O)NC(=O)[C@H]2CCCN2C(=O)[C@H](CC(C)C)NC(=O)CNC1=O
B2: Compound 110 (Ac-cRLPWNLQRIGLPC-NH2) (peptide)
peptide: Ac-[dC]RLPWNLQRIGLPC-NH2
modifications: disulfide 1-14
SMILES: CC[C@H](C)[C@@H]1NC(=O)[C@H](CCCNC(=N)N)NC(=O)[C@H](CCC(N)=O)NC(=O)[C@H](CC(C)C)NC(=O)[C@H](CC(N)=O)NC(=O)[C@H](Cc2c[nH]c3ccccc23)NC(=O)[C@@H]2CCCN2C(=O)[C@H](CC(C)C)NC(=O)[C@H](CCCNC(=N)N)NC(=O)[C@H](NC(C)=O)CSSC[C@@H](C(N)=O)NC(=O)[C@@H]2CCCN2C(=O)[C@H](CC(C)C)NC(=O)CNC1=O
B3: Compound 70 (Ac-CRLPWNLQRIALPC-NH2) (peptide)
peptide: Ac-CRLPWNLQRIALPC-NH2
modifications: disulfide 1-14
SMILES: CC[C@H](C)[C@@H]1NC(=O)[C@H](CCCNC(=N)N)NC(=O)[C@H](CCC(N)=O)NC(=O)[C@H](CC(C)C)NC(=O)[C@H](CC(N)=O)NC(=O)[C@H](Cc2c[nH]c3ccccc23)NC(=O)[C@@H]2CCCN2C(=O)[C@H](CC(C)C)NC(=O)[C@H](CCCNC(=N)N)NC(=O)[C@@H](NC(C)=O)CSSC[C@@H](C(N)=O)NC(=O)[C@@H]2CCCN2C(=O)[C@H](CC(C)C)NC(=O)[C@H](C)NC1=O
B4: Compound 71 (Ac-CRLPWNLQRAGLPC-NH2) (peptide)
peptide: Ac-CRLPWNLQRAGLPC-NH2
modifications: disulfide 1-14
SMILES: CC(=O)N[C@H]1CSSC[C@@H](C(N)=O)NC(=O)[C@@H]2CCCN2C(=O)[C@H](CC(C)C)NC(=O)CNC(=O)[C@H](C)NC(=O)[C@H](CCCNC(=N)N)NC(=O)[C@H](CCC(N)=O)NC(=O)[C@H](CC(C)C)NC(=O)[C@H](CC(N)=O)NC(=O)[C@H](Cc2c[nH]c3ccccc23)NC(=O)[C@@H]2CCCN2C(=O)[C@H](CC(C)C)NC(=O)[C@H](CCCNC(=N)N)NC1=O
B5: Compound 73 (Ac-CRLPWNLARIGLPC-NH2) (peptide)
peptide: Ac-CRLPWNLARIGLPC-NH2
modifications: disulfide 1-14
SMILES: CC[C@H](C)[C@@H]1NC(=O)[C@H](CCCNC(=N)N)NC(=O)[C@H](C)NC(=O)[C@H](CC(C)C)NC(=O)[C@H](CC(N)=O)NC(=O)[C@H](Cc2c[nH]c3ccccc23)NC(=O)[C@@H]2CCCN2C(=O)[C@H](CC(C)C)NC(=O)[C@H](CCCNC(=N)N)NC(=O)[C@@H](NC(C)=O)CSSC[C@@H](C(N)=O)NC(=O)[C@@H]2CCCN2C(=O)[C@H](CC(C)C)NC(=O)CNC1=O
B6: Compound 79 (Ac-CALPWNLQRIGLPC-NH2) (peptide)
peptide: Ac-CALPWNLQRIGLPC-NH2
modifications: disulfide 1-14
SMILES: CC[C@H](C)[C@@H]1NC(=O)[C@H](CCCNC(=N)N)NC(=O)[C@H](CCC(N)=O)NC(=O)[C@H](CC(C)C)NC(=O)[C@H](CC(N)=O)NC(=O)[C@H](Cc2c[nH]c3ccccc23)NC(=O)[C@@H]2CCCN2C(=O)[C@H](CC(C)C)NC(=O)[C@H](C)NC(=O)[C@@H](NC(C)=O)CSSC[C@@H](C(N)=O)NC(=O)[C@@H]2CCCN2C(=O)[C@H](CC(C)C)NC(=O)CNC1=O
B7: Compound 72 (Ac-CRLPWNLQAIGLPC-NH2) (peptide)
peptide: Ac-CRLPWNLQAIGLPC-NH2
modifications: disulfide 1-14
SMILES: CC[C@H](C)[C@@H]1NC(=O)[C@H](C)NC(=O)[C@H](CCC(N)=O)NC(=O)[C@H](CC(C)C)NC(=O)[C@H](CC(N)=O)NC(=O)[C@H](Cc2c[nH]c3ccccc23)NC(=O)[C@@H]2CCCN2C(=O)[C@H](CC(C)C)NC(=O)[C@H](CCCNC(=N)N)NC(=O)[C@@H](NC(C)=O)CSSC[C@@H](C(N)=O)NC(=O)[C@@H]2CCCN2C(=O)[C@H](CC(C)C)NC(=O)CNC1=O
B8: Compound 80 (Ac-CRLPWNLQRIGLGC-NH2) (peptide)
peptide: Ac-CRLPWNLQRIGLGC-NH2
modifications: disulfide 1-14
SMILES: CC[C@H](C)[C@@H]1NC(=O)[C@H](CCCNC(=N)N)NC(=O)[C@H](CCC(N)=O)NC(=O)[C@H](CC(C)C)NC(=O)[C@H](CC(N)=O)NC(=O)[C@H](Cc2c[nH]c3ccccc23)NC(=O)[C@@H]2CCCN2C(=O)[C@H](CC(C)C)NC(=O)[C@H](CCCNC(=N)N)NC(=O)[C@@H](NC(C)=O)CSSC[C@@H](C(N)=O)NC(=O)CNC(=O)[C@H](CC(C)C)NC(=O)CNC1=O
B9: Compound 81 (Ac-CRLPWNLQRIGGGC-NH2) (peptide)
peptide: Ac-CRLPWNLQRIGGGC-NH2
modifications: disulfide 1-14
SMILES: CC[C@H](C)[C@@H]1NC(=O)[C@H](CCCNC(=N)N)NC(=O)[C@H](CCC(N)=O)NC(=O)[C@H](CC(C)C)NC(=O)[C@H](CC(N)=O)NC(=O)[C@H](Cc2c[nH]c3ccccc23)NC(=O)[C@@H]2CCCN2C(=O)[C@H](CC(C)C)NC(=O)[C@H](CCCNC(=N)N)NC(=O)[C@@H](NC(C)=O)CSSC[C@@H](C(N)=O)NC(=O)CNC(=O)CNC(=O)CNC1=O
B10: Compound 77 (Ac-CRLAWNLQRIGLPC-NH2) (peptide)
peptide: Ac-CRLAWNLQRIGLPC-NH2
modifications: disulfide 1-14
SMILES: CC[C@H](C)[C@@H]1NC(=O)[C@H](CCCNC(=N)N)NC(=O)[C@H](CCC(N)=O)NC(=O)[C@H](CC(C)C)NC(=O)[C@H](CC(N)=O)NC(=O)[C@H](Cc2c[nH]c3ccccc23)NC(=O)[C@H](C)NC(=O)[C@H](CC(C)C)NC(=O)[C@H](CCCNC(=N)N)NC(=O)[C@@H](NC(C)=O)CSSC[C@@H](C(N)=O)NC(=O)[C@@H]2CCCN2C(=O)[C@H](CC(C)C)NC(=O)CNC1=O
B11: Compound 75 (Ac-CRLPWALQRIGLPC-NH2) (peptide)
peptide: Ac-CRLPWALQRIGLPC-NH2
modifications: disulfide 1-14
SMILES: CC[C@H](C)[C@@H]1NC(=O)[C@H](CCCNC(=N)N)NC(=O)[C@H](CCC(N)=O)NC(=O)[C@H](CC(C)C)NC(=O)[C@H](C)NC(=O)[C@H](Cc2c[nH]c3ccccc23)NC(=O)[C@@H]2CCCN2C(=O)[C@H](CC(C)C)NC(=O)[C@H](CCCNC(=N)N)NC(=O)[C@@H](NC(C)=O)CSSC[C@@H](C(N)=O)NC(=O)[C@@H]2CCCN2C(=O)[C@H](CC(C)C)NC(=O)CNC1=O
B12: Compound 78 (Ac-CRAPWNLQRIGLPC-NH2) (peptide)
peptide: Ac-CRAPWNLQRIGLPC-NH2
modifications: disulfide 1-14
SMILES: CC[C@H](C)[C@@H]1NC(=O)[C@H](CCCNC(=N)N)NC(=O)[C@H](CCC(N)=O)NC(=O)[C@H](CC(C)C)NC(=O)[C@H](CC(N)=O)NC(=O)[C@H](Cc2c[nH]c3ccccc23)NC(=O)[C@@H]2CCCN2C(=O)[C@H](C)NC(=O)[C@H](CCCNC(=N)N)NC(=O)[C@@H](NC(C)=O)CSSC[C@@H](C(N)=O)NC(=O)[C@@H]2CCCN2C(=O)[C@H](CC(C)C)NC(=O)CNC1=O
B13: Compound 74 (Ac-CRLPWNAQRIGLPC-NH2) (peptide)
peptide: Ac-CRLPWNAQRIGLPC-NH2
modifications: disulfide 1-14
SMILES: CC[C@H](C)[C@@H]1NC(=O)[C@H](CCCNC(=N)N)NC(=O)[C@H](CCC(N)=O)NC(=O)[C@H](C)NC(=O)[C@H](CC(N)=O)NC(=O)[C@H](Cc2c[nH]c3ccccc23)NC(=O)[C@@H]2CCCN2C(=O)[C@H](CC(C)C)NC(=O)[C@H](CCCNC(=N)N)NC(=O)[C@@H](NC(C)=O)CSSC[C@@H](C(N)=O)NC(=O)[C@@H]2CCCN2C(=O)[C@H](CC(C)C)NC(=O)CNC1=O
B14: Compound 76 (Ac-CRLPANLQRIGLPC-NH2) (peptide)
peptide: Ac-CRLPANLQRIGLPC-NH2
modifications: disulfide 1-14
SMILES: CC[C@H](C)[C@@H]1NC(=O)[C@H](CCCNC(=N)N)NC(=O)[C@H](CCC(N)=O)NC(=O)[C@H](CC(C)C)NC(=O)[C@H](CC(N)=O)NC(=O)[C@H](C)NC(=O)[C@@H]2CCCN2C(=O)[C@H](CC(C)C)NC(=O)[C@H](CCCNC(=N)N)NC(=O)[C@@H](NC(C)=O)CSSC[C@@H](C(N)=O)NC(=O)[C@@H]2CCCN2C(=O)[C@H](CC(C)C)NC(=O)CNC1=O
B15: Compound 108 (Ac-CRlPWNLQRIGLPC-NH2) (peptide)
peptide: Ac-CR[dL]PWNLQRIGLPC-NH2
modifications: disulfide 1-14
SMILES: CC[C@H](C)[C@@H]1NC(=O)[C@H](CCCNC(=N)N)NC(=O)[C@H](CCC(N)=O)NC(=O)[C@H](CC(C)C)NC(=O)[C@H](CC(N)=O)NC(=O)[C@H](Cc2c[nH]c3ccccc23)NC(=O)[C@@H]2CCCN2C(=O)[C@@H](CC(C)C)NC(=O)[C@H](CCCNC(=N)N)NC(=O)[C@@H](NC(C)=O)CSSC[C@@H](C(N)=O)NC(=O)[C@@H]2CCCN2C(=O)[C@H](CC(C)C)NC(=O)CNC1=O
B16: Compound 109 (Ac-CrLPWNLQRIGLPC-NH2) (peptide)
peptide: Ac-C[dR]LPWNLQRIGLPC-NH2
modifications: disulfide 1-14
SMILES: CC[C@H](C)[C@@H]1NC(=O)[C@H](CCCNC(=N)N)NC(=O)[C@H](CCC(N)=O)NC(=O)[C@H](CC(C)C)NC(=O)[C@H](CC(N)=O)NC(=O)[C@H](Cc2c[nH]c3ccccc23)NC(=O)[C@@H]2CCCN2C(=O)[C@H](CC(C)C)NC(=O)[C@@H](CCCNC(=N)N)NC(=O)[C@@H](NC(C)=O)CSSC[C@@H](C(N)=O)NC(=O)[C@@H]2CCCN2C(=O)[C@H](CC(C)C)NC(=O)CNC1=O

How the values were obtained:
[1] = molecular target: T1, His-tagged, full-length PCSK9 (human, UniProt Q8NBP7 31-692); assay: TR-FRET competition (PCSK9/EGF(A) assay); competitor EGF(A)-Fc;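 note: proximity signal from anti-His APC on PCSK9 paired with anti-Fc europium on the Fc ligand, read as normalized TR-FRET ratio across compound dilutions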
T1 construct: secreted PCSK9 is autocatalytically cleaved into prodomain and catalytic domain + CRD (from S153), which stay associated; also called His-PCSK9; proprotein convertase subtilisin/kexin type 9; not shown: His tag

His-tagged PCSK9Δhelix = molecular target: T2, His-tagged PCSK9Δhelix (human, UniProt Q8NBP7 31-152; Q8NBP7 168-692); assay: TR-FRET competition (PCSK9Δhelix/Ab20 assay); competitor Ab20
T2 construct: Human PCSK9 M1-Q692 with an engineered TEV site, cut by TEV protease; new N-terminus of the catalytic domain is S-A168; also called His-PCSK9Δhelix; not shown: His tag
T2 sequence (Q8NBP7 31-152, stated change not applied, chain 1 of 2): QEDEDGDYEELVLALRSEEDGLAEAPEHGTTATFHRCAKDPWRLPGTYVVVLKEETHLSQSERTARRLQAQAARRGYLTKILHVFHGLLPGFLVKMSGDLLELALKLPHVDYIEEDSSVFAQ
T2 sequence (Q8NBP7 other isoform, or with tags, fused parts or gaps mutant, chain 2 of 2): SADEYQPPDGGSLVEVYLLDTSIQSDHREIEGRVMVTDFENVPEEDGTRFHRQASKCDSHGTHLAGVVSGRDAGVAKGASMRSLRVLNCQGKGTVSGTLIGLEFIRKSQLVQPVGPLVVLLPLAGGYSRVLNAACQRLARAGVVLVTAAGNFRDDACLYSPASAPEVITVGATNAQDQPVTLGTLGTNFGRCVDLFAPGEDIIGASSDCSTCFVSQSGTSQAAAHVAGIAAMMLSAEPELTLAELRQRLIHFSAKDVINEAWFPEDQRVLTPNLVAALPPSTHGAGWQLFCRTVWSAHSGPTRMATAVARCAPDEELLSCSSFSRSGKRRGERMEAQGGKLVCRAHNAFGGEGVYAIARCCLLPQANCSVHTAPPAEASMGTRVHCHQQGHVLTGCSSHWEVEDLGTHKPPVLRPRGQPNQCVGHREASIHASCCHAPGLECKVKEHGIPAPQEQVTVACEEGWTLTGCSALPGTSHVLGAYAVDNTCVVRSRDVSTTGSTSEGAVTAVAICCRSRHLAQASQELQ

T1 sequence (Q8NBP7 31-692 limits assumed): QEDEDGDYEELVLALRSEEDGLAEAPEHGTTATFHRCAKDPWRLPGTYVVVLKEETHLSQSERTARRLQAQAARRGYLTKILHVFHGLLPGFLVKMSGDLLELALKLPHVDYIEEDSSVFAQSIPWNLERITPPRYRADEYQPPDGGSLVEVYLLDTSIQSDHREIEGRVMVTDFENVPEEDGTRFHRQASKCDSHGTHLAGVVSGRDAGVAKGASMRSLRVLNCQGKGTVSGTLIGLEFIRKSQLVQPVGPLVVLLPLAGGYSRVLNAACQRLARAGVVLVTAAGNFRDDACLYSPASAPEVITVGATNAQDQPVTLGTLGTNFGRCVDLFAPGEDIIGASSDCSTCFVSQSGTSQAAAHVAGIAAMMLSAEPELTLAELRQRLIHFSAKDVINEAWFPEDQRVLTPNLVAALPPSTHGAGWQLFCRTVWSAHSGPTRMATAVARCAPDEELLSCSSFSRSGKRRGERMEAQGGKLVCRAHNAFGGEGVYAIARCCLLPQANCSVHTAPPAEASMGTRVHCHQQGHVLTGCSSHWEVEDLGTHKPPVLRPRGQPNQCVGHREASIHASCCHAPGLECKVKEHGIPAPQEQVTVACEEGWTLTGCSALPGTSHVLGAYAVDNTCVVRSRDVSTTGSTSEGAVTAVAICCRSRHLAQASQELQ

Binder	IC50 [1] [µM]	IC50 (His-tagged PCSK9Δhelix) [µM]
B1	> 50	1.3
B2	> 50	1.78
B3	> 50	7.26
B4	> 50	49.5
B5	> 50	0.915
B6	> 50	1.53
B7	> 50	39.6
B8	> 50	0.65
B9	> 50	28.8
B10	> 50	6.02
B11	> 50	49.5
B12	> 50	5.56
B13	> 50	49.5
B14	> 50	49.5
B15	> 50	28.2
B16	> 50	1.67
